The record followed here is patent US20040018971A1 (published 2004).

Experiment [1] deals with T1, HLA-A*0201 (human).
T1 construct: also called HLA-A2.1
In words: competitive inhibition of 125I-labelled standard peptide binding to purified HLA, gel filtration.

Experiment [2] concerns the target T2, HLA-A*0201 (human).
T2 construct: also called HLA-A2.1
Kind of experiment: competition with 125I-labelled standard peptide 941.01 for purified HLA, gel filtration. Background: In gel filtration, larger molecules generally elute earlier.

For experiment [3], the target named is T3, HLA-A*0201 (human).
T3 construct: also called HLA-A2.1
In words: inhibition of 125I-labelled standard peptide binding to purified HLA, gel filtration; ratio = IC50 of standard / IC50 of test peptide.

The target in experiment [4] is HLA-B*0702 (human). In words: competition with 125I probe peptide, purified HLA.
Experiment [5] concerns the target HLA-B*3501 (human). In words: competition with 125I probe peptide, purified HLA.
The target in experiment [6] is HLA-B*5101 (human). In words: competition with 125I probe peptide, purified HLA.
Experiment [7] deals with HLA-B*5301 (human). In words: competition with 125I probe peptide, purified HLA.
In experiment [8] the target is HLA-B*5401 (human). In words: competition with 125I probe peptide, purified HLA.

Take NVKIPVAIKV (Synthetic peptide) [HER2/neu A02 supermotif peptide, position 745, 10 amino acids]: the “relative binding ratio (IC50 of standard peptide / IC50 of test peptide)” value in experiment [1] came out at 0.0001 ratio.

Consider AMPNQAQMRI (also called Her2/neu.705 (10-mer)) [HER2/neu peptide, position 705, 10 amino acids], for which, in experiment [2], the relative binding ratio is 0.0007 ratio (IC50 of standard peptide / IC50 of test peptide).

For the molecule RMARDPQRFV [HER2/neu peptide, position 978, 10 amino acids], the relative binding ratio in experiment [3] is 0.002 ratio to standard peptide.

Turning to AVLDNGDPL (also called Her2/neu.115 (9-mer)) [HER2/neu peptide, position 115, 9 amino acids], the relative binding ratio in experiment [2] is 0.0004 ratio (IC50 of standard peptide / IC50 of test peptide).

For the molecule TIDVYMIMV [HER2/neu peptide, position 948, 9 amino acids], the relative binding ratio in experiment [3] was 0.0005 ratio to standard peptide.

Regarding TAENPEYLGL [HER2/neu peptide, position 1242, 10 amino acids], the relative binding ratio in experiment [3] is 0.0001 ratio to standard peptide.

CVTACPYNYL (also called Her2/neu.295 (10-mer)) [HER2/neu peptide, position 295, 10 amino acids]: the relative binding ratio in experiment [2] was 0.0001 ratio (IC50 of standard peptide / IC50 of test peptide).

The IC50 is the concentration at which inhibition is half-maximal. On to MPNPEGRYTI (analog peptide) [Her2/neu.282.I10], for which the IC50 came to 34 nM in experiment [4]; 111 nM in experiment [5]; 13 nM in experiment [6]; 9.3 nM in experiment [7]; 46 nM in experiment [8].

Turning to FPNPEGRYTI (analog peptide) [Her2/neu.282.F1], the IC50 was 324 nM in experiment [4]; 24 nM in experiment [5]; 9.3 nM in experiment [6]; 6.6 nM in experiment [7]; 3.2 nM in experiment [8].

B1: HER2/neu peptide, position 413, 10 amino acids (peptide)
peptide: SAWPDSLPDL
notes: T0022 prints L there and the analog Her2/neu.415.I8 implies a native L, so L is used
For the molecule B1, in experiment [3], the relative binding ratio is 0.0002 ratio to standard peptide.

With DLLEKGERL (also called Her2/neu.933 (9-mer)) [HER2/neu peptide, position 933, 9 amino acids], the relative binding ratio in experiment [2] was 0.0002 ratio (IC50 of standard peptide / IC50 of test peptide).

For SAVVGILLVV [HER2/neu peptide, position 656, 10 amino acids], the relative binding ratio in experiment [3] is 0.0009 ratio to standard peptide.

For RLPQPPICT [HER2/neu peptide, position 940, 9 amino acids], the relative binding ratio in experiment [3] is 0.0002 ratio to standard peptide.

As to DLGMGAAKGL (also called Her2/neu.1089 (10-mer)) [HER2/neu peptide, position 1089, 10 amino acids], in experiment [2], the relative binding ratio was 0.0001 ratio (IC50 of standard peptide / IC50 of test peptide).

In the case of SVFQNLQVI [HER2/neu peptide, position 423, 9 amino acids], in experiment [3], the relative binding ratio was 0.0017 ratio to standard peptide.

As to DIQEVQGYV (also called Her2/neu.76 (9-mer)) [HER2/neu peptide, position 76, 9 amino acids], in experiment [2], the relative binding ratio was 0.0001 ratio (IC50 of standard peptide / IC50 of test peptide).

For FPMCKGSRCI (analog peptide) [Her2/neu.196.F1], the IC50 was 183 nM in experiment [4], 500 nM in experiment [6], 6640 nM in experiment [7] and 303 nM in experiment [8].

On to RLRIVRGTQL [HER2/neu peptide, position 98, 10 amino acids], for which the relative binding ratio in experiment [3] was 0.0001 ratio to standard peptide.

Regarding PAARPAGATL (Synthetic peptide) [HER2/neu A02 supermotif peptide, position 1158, 10 amino acids], in experiment [1], the “relative binding ratio (IC50 of standard peptide / IC50 of test peptide)” value was determined as 0.0001 ratio.

On to CARVCYGLGM (also called Her2/neu.338 (10-mer)) [HER2/neu peptide, position 338, 10 amino acids], for which the relative binding ratio in experiment [2] is 0.0011 ratio (IC50 of standard peptide / IC50 of test peptide).

Regarding FPHQALLHTA (analog peptide) [Her2/neu.488.F1], the IC50 in experiment [4] came to 393 nM; in experiment [5], 379 nM; in experiment [6], 4230 nM; in experiment [8] it was 1.3 nM.

As for FPGGLRELQI (analog peptide) [Her2/neu.133.F1I10], the half-inhibitory concentration (IC50) was 306 nM in experiment [4], 1770 nM in experiment [6], 310 nM in experiment [7] and 476 nM in experiment [8].

As for DIQEVQGYVL (also called Her2/neu.76 (10-mer)) [HER2/neu peptide, position 76, 10 amino acids], in experiment [2], the relative binding ratio is 0.0001 ratio (IC50 of standard peptide / IC50 of test peptide).

Regarding SLRELGSGL [HER2/neu peptide, position 457, 9 amino acids], the relative binding ratio in experiment [3] was 0.0002 ratio to standard peptide.

For PAFSPAFDNL (Synthetic peptide) [HER2/neu A02 supermotif peptide, position 1211, 10 amino acids], in experiment [1], the “relative binding ratio (IC50 of standard peptide / IC50 of test peptide)” value stood at 0.0001 ratio.

RASPLTSII [HER2/neu peptide, position 647, 9 amino acids]: the relative binding ratio in experiment [3] was 0.0002 ratio to standard peptide.

In the case of AARPAGATL (also called Her2/neu.1159 (9-mer)) [HER2/neu peptide, position 1159, 9 amino acids], in experiment [2], the relative binding ratio was 0.0001 ratio (IC50 of standard peptide / IC50 of test peptide).

Take RLVHRDLAA [HER2/neu peptide, position 840, 9 amino acids]: the relative binding ratio in experiment [3] was 0.0001 ratio to standard peptide.

As for SLPTHDPSPL [HER2/neu peptide, position 1100, 10 amino acids], the relative binding ratio in experiment [3] was 0.0059 ratio to standard peptide.

For the molecule DLAARNVLV (also called Her2/neu.845 (9-mer)) [HER2/neu peptide, position 845, 9 amino acids], in experiment [2], the relative binding ratio was 0.0002 ratio (IC50 of standard peptide / IC50 of test peptide).

Turning to RLPASPETHL [HER2/neu peptide, position 34, 10 amino acids], the relative binding ratio in experiment [3] is 0.0001 ratio to standard peptide.

In the case of PAREIPDLL (Synthetic peptide) [HER2/neu A02 supermotif peptide, position 927, 9 amino acids], the “relative binding ratio (IC50 of standard peptide / IC50 of test peptide)” value in experiment [1] turned out to be 0.0001 ratio.

On to CVARCPSGV (also called Her2/neu.596 (9-mer)) [HER2/neu peptide, position 596, 9 amino acids], for which the relative binding ratio in experiment [2] is 0.0004 ratio (IC50 of standard peptide / IC50 of test peptide).

On to FPTNASLSF (analog peptide) [Her2/neu.65.F1 (9-mer)], for which the IC50 in experiment [4] was 1.1 nM; in experiment [5], 7.9 nM; in experiment [6] it was 85 nM; in experiment [7], 6.2 nM; in experiment [8], 556 nM.

Consider FPTNASLSI (analog peptide) [Her2/neu.65.F1I9], for which the IC50 was 4.6 nM in experiment [4]; 300 nM in experiment [5]; 8.7 nM in experiment [6]; 14 nM in experiment [7]; 2.8 nM in experiment [8].

Take TAPLQPEQL [HER2/neu peptide, position 389, 9 amino acids]: the relative binding ratio in experiment [3] was 0.0002 ratio to standard peptide.

As to CPLHNQEVTI (analog peptide) [Her2/neu.315.I10], the IC50 in experiment [4] worked out at 458 nM; in experiment [6], 42 nM; in experiment [7] it was 274 nM; in experiment [8], 556 nM.

AALCRWGLLL (also called Her2/neu.4 (10-mer)) [HER2/neu peptide, position 4, 10 amino acids]: the relative binding ratio in experiment [2] is 0.001 ratio (IC50 of standard peptide / IC50 of test peptide).

On to PASPETHLDM (Synthetic peptide) [HER2/neu A02 supermotif peptide, position 36, 10 amino acids], for which the “relative binding ratio (IC50 of standard peptide / IC50 of test peptide)” value in experiment [1] came to 0.0001 ratio.

On to SIISAVVGIL [HER2/neu peptide, position 653, 10 amino acids], for which the relative binding ratio in experiment [3] was 0.0002 ratio to standard peptide.

For the molecule STDVGSCTLV [HER2/neu peptide, position 305, 10 amino acids], in experiment [3], the relative binding ratio was 0.0001 ratio to standard peptide.

For the molecule PAEQRASPL (Synthetic peptide) [HER2/neu A02 supermotif peptide, position 643, 9 amino acids], the “relative binding ratio (IC50 of standard peptide / IC50 of test peptide)” value in experiment [1] is 0.0001 ratio.

Take NVLVKSPNHV (Synthetic peptide) [HER2/neu A02 supermotif peptide, position 850, 10 amino acids]: the “relative binding ratio (IC50 of standard peptide / IC50 of test peptide)” value in experiment [1] came to 0.0001 ratio.

On to NLQVIRGRIL (Synthetic peptide) [HER2/neu A02 supermotif peptide, position 427, 10 amino acids], for which the “relative binding ratio (IC50 of standard peptide / IC50 of test peptide)” value in experiment [1] was determined as 0.0001 ratio.

Take ALLPPGAAST (also called Her2/neu.14 (10-mer)) [HER2/neu peptide, position 14, 10 amino acids]: in experiment [2], the relative binding ratio is 0.0001 ratio (IC50 of standard peptide / IC50 of test peptide).

Take FPCARVCYGL (analog peptide) [Her2/neu.336.F1]: the IC50 stood at 190 nM in experiment [4]; 450 nM in experiment [5]; 1000 nM in experiment [6]; 1690 nM in experiment [7]; 36 nM in experiment [8].

Regarding FPTNASLSFI (analog peptide) [Her2/neu.65.F1I10], the IC50 was 120 nM in experiment [4]; 424 nM in experiment [5]; 23 nM in experiment [6]; 85 nM in experiment [7]; 53 nM in experiment [8].

Consider ALVTYNTDT (also called Her2/neu.270 (9-mer)) [HER2/neu peptide, position 270, 9 amino acids], for which the relative binding ratio in experiment [2] was 0.0001 ratio (IC50 of standard peptide / IC50 of test peptide).

Regarding DIFHKNNQL (also called Her2/neu.171 (9-mer)) [HER2/neu peptide, position 171, 9 amino acids], the relative binding ratio in experiment [2] is 0.0002 ratio (IC50 of standard peptide / IC50 of test peptide).

Take FPLNNTTPI (analog peptide) [Her2/neu.121.F1I9]: the half-inhibitory concentration (IC50) amounted to 1.6 nM in experiment [4]; 200 nM in experiment [5]; 13 nM in experiment [6]; 52 nM in experiment [7]; 1.6 nM in experiment [8].

FPLNNTTPV (analog peptide) [Her2/neu.121.F1]: the concentration for half-maximal inhibition (IC50) in experiment [4] was 0.2 nM; in experiment [5], 40 nM; in experiment [6] it was 7.1 nM; in experiment [7], 1070 nM; in experiment [8], 1.1 nM.
